Measured values: paper PMC10681732
Where a chain is given by its changes, count along the chain named.

T1: RIG-I CTD WT (crystal) (human, UniProt O95786 802-925)
T1 sequence: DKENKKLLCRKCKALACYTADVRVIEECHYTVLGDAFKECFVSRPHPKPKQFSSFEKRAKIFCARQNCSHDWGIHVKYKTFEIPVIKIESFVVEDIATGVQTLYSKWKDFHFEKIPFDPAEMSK

T2: RIG-I CTD I875A (crystal) (human, UniProt O95786 802-925, I875A)
T2 sequence: T1 sequence with I74A

B1: OH-dsRNA (crystallization) (dsRNA)
RNA 1: GACGCUAGCGUC
RNA 2: GACGCUAGCGUC
B2: p-dsRNA (crystallization) (dsRNA)
RNA 1: GACGCUAGCGUC
RNA 2: GACGCUAGCGUC
modifications: 5'-monophosphate

How the values were obtained:
RIG-I CTD WT (crystal) = biological target: T1, RIG-I CTD WT (crystal); test: X-ray crystallography
[1] = biological target: T2, RIG-I CTD I875A (crystal); test: X-ray crystallography

Row | Binder | binding result (RIG-I CTD WT (crystal)) | binding result [1]
1 | B1 | binds | –
2 | B2 | – | binds
